± gives the uncertainty stated by the source.
Experiment: self-splicing fitness, log relative to wild type (ln ratio); higher = more splicing; Tetrahymena group I intron in knt gene, E. coli kanamycin selection, DiMSum; sequences stand for … in CUCUCU…GGAGGGAAAAGUUAUCAGGCAUGCACCUGGUAGCUAGUCUUUAAACCAAUAGAUUGCAUCGGUUUAAAAGGCAAGACCGUCAAAUUGCGGGAAAGGGGUCAACAGCCGUUCAGUACCAAGUCUCAGGGGAAACUUUGAGAUGGCCUUGCAAAGGGUAUGGUAAUAAGCUGACGGACAUGGUCCUAACCACGCAGCCAAGUCCUAAGUCAACAGAUCUUCUGUUGAUAUGGAUGCAGUUCACAGACUAAAUGUCGGUCGGGGAAGAUGUAUUCUUCUCAUAAGAUAUAGUCGGACCUCUCCUUAAUGGGAGCUAGCGGAUGAAGUGAUGCAACACUGGAGCCGCUGGGAACUAAUUUGUAUGCGAAAGUAUAUUGAUUAGUUUUGGAGUACUCGUGGUCG
Summary of the method: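 A randomised library covering all eight P1ex-region intron nucleotides was built with the intron in the knt kanamycin-resistance gene on pET-22b(+) and held in E. coli BL21(DE3). Cells were grown overnight at 37°C or 30°C on LB agar, with or without 25 μg/mL kanamycin, plus 100 μg/mL carbenicillin, 50 μM IPTG and 0.2% rhamnose, and pooled colonies were amplicon-sequenced on an Illumina HiSeq 2500. DiMSum fitness is the error-weighted combination of wild-type-normalised replicate fold changes, kanamycin versus none.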

Row | Sequence | self-splicing fitness (ln) (30 °C) | self-splicing fitness (ln) (37 °C)
1 | GACGAGCAAUAUUACGCACG | -3.63 ± 0.23 | -2.61 ± 0.25
2 | AGCCAGCAAUAUUACGGAAG | -1.57 ± 0.1 | 0.171 ± 0.12
3 | UUAAAGCAAUAUUACGCUUG | -0.897 ± 0.096 | 0.0122 ± 0.12
4 | GAGAAGCAAUAUUACGGAUC | -2.34 ± 0.34 | -1.97 ± 0.4
5 | CGCAAGCAAUAUUACGAUGG | -0.351 ± 0.081 | -0.239 ± 0.095
6 | CACAAGCAAUAUUACGAACU | -3.64 ± 0.19 | -2.37 ± 0.17
7 | UGUGAGCAAUAUUACGGUCU | -3.01 ± 0.17 | -2.19 ± 0.2
8 | AAGAAGCAAUAUUACGCAGG | -2.54 ± 0.14 | -1.26 ± 0.14
9 | AGUGAGCAAUAUUACGCACG | -1.58 ± 0.18 | -0.941 ± 0.17
10 | UCCCAGCAAUAUUACGGGCU | -1.71 ± 0.066 | -1.32 ± 0.087
11 | CCAGAGCAAUAUUACGAAGA | -3.48 ± 0.31 | -2.84 ± 0.43
12 | AAGGAGCAAUAUUACGUGUC |  | -2.12 ± 0.32
13 | AAUAAGCAAUAUUACGUUAC | -3.62 ± 0.18 | -1.39 ± 0.14
14 | GUUGAGCAAUAUUACGGCGC | -0.744 ± 0.18 | -0.21 ± 0.22
15 | AGGCAGCAAUAUUACGGCUA | -0.132 ± 0.069 | -0.399 ± 0.078
16 | AAAUAGCAAUAUUACGGAGU | -3.7 ± 0.2 | -2.61 ± 0.15
17 | UGAAAGCAAUAUUACGAUUU | -1.08 ± 0.06 | -0.463 ± 0.077
18 | AUUUAGCAAUAUUACGUGUG | -2.36 ± 0.11 | -1.44 ± 0.11
19 | ACUUAGCAAUAUUACGGUAG | -3.35 ± 0.23 | -1.83 ± 0.23
20 | AUUAAGCAAUAUUACGAUCA | -1.58 ± 0.17 | -0.409 ± 0.14
21 | ACCUAGCAAUAUUACGUUGG | -2.35 ± 0.092 | -2.46 ± 0.14
22 | CUACAGCAAUAUUACGCCGU | -3.2 ± 0.19 | -2.06 ± 0.29
23 | UAGAAGCAAUAUUACGUAAU | -3.43 ± 0.22 | -1.39 ± 0.18
24 | GCAAAGCAAUAUUACGGGAG | -2.71 ± 0.11 | -2.08 ± 0.13

Row | Sequence | self-splicing fitness (ln) (30 °C) | self-splicing fitness (ln) (37 °C)
25 | GUGAAGCAAUAUUACGAAGG | -1.91 ± 0.14 | -0.854 ± 0.17
26 | AUCGAGCAAUAUUACGUGCC | -2.52 ± 0.2 | -2.22 ± 0.32
27 | UCCAAGCAAUAUUACGGUAC | -4.3 ± 0.23 | -2.81 ± 0.24
28 | GCGUAGCAAUAUUACGGACG | -3.14 ± 0.21 | -2.1 ± 0.22
29 | AAAUAGCAAUAUUACGUUCG | -1.17 ± 0.088 | -0.371 ± 0.13
30 | GGCCAGCAAUAUUACGCGGU | -3.63 ± 0.46 | -2.53 ± 0.34
31 | AGGCAGCAAUAUUACGGAAC | -4.21 ± 0.47 | -2.29 ± 0.36
32 | CAACAGCAAUAUUACGCGUA | -1.55 ± 0.093 | -1.06 ± 0.088
33 | GUUCAGCAAUAUUACGAAGU | -0.606 ± 0.098 | -0.391 ± 0.12
34 | UGCAAGCAAUAUUACGAGCU | -0.536 ± 0.089 | -0.0945 ± 0.1
35 | AUCCAGCAAUAUUACGUAGC | -2.3 ± 0.08 | -1.78 ± 0.11
36 | UGGCAGCAAUAUUACGUUAC | -4.11 ± 0.46 | -2.46 ± 0.25
37 | GCCUAGCAAUAUUACGGAUU | -0.548 ± 0.085 | 0.334 ± 0.091
38 | GUUUAGCAAUAUUACGCGUC | -1.79 ± 0.24 | -0.647 ± 0.24
39 | GAAUAGCAAUAUUACGAUAG | -0.707 ± 0.15 | -1.47 ± 0.22
40 | UUGGAGCAAUAUUACGGCUA | -1.23 ± 0.26 | -1.21 ± 0.41
41 | UGAAAGCAAUAUUACGCCCU | -0.195 ± 0.11 | 0.295 ± 0.15
42 | UGAUAGCAAUAUUACGGCUG | 0.473 ± 0.11 | -0.149 ± 0.14
43 | GAUGAGCAAUAUUACGUCCC | -2.06 ± 0.43 | -1.04 ± 0.44
44 | CGAUAGCAAUAUUACGCCCC | -1.99 ± 0.29 | -0.838 ± 0.29
45 | GCACAGCAAUAUUACGAGCG | -1.16 ± 0.066 | -0.171 ± 0.077
46 | AGUGAGCAAUAUUACGACGA | -2.44 ± 0.21 | -1.13 ± 0.24
47 | GGAAAGCAAUAUUACGCAGC | -2.07 ± 0.22 | -1.53 ± 0.23
48 | CAGCAGCAAUAUUACGCGUA | -1.87 ± 0.083 | -1.05 ± 0.075
